B1: tuberous sclerosis complex 2 (TSC2), human, subunit of the purified TSC complex (natural protein)
chain: not shown
notes: TSC2 (tuberin), human; ORF sub-cloned into a modified pCAG vector; residues 127-936, 1015-1082, 1182-1245, 1494-1732 traced; Two copies (TSC2a, TSC2b) stand in the TSC complex (2:2:1); The sample for cryo-EM was cross-linked with glutaraldehyde (Grafix); also called TSC2a; TSC2b
B2: tuberous sclerosis complex 1 (TSC1), human, subunit of the purified TSC complex (natural protein, UniProt Q92574 1-1164, looked up)
chain: MAQQANVGELLAMLDSPMLGVRDDVTAVFKENLNSDRGPMLVNTLVDYYLETSSQPALHILTTLQEPHDKHLLDRINEYVGKAATRLSILSLLGHVIRLQPSWKHKLSQAPLLPSLLKCLKMDTDVVVLTTGVLVLITMLPMIPQSGKQHLLDFFDIFGRLSSWCLKKPGHVAEVYLVHLHASVYALFHRLYGMYPCNFVSFLRSHYSMKENLETFEEVVKPMMEHVRIHPELVTGSKDHELDPRRWKRLETHDVVIECAKISLDPTEASYEDGYSVSHQISARFPHRSADVTTSPYADTQNSYGCATSTPYSTSRLMLLNMPGQLPQTLSSPSTRLITEPPQATLWSPSMVCGMTTPPTSPGNVPPDLSHPYSKVFGTTAGGKGTPLGTPATSPPPAPLCHSDDYVHISLPQATVTPPRKEERMDSARPCLHRQHHLLNDRGSEEPPGSKGSVTLSDLPGFLGDLASEEDSIEKDKEEAAISRELSEITTAEAEPVVPRGGFDSPFYRDSLPGSQRKTHSAASSSQGASVNPEPLHSSLDKLGPDTPKQAFTPIDLPCGSADESPAGDRECQTSLETSIFTPSPCKIPPPTRVGFGSGQPPPYDHLFEVALPKTAHHFVIRKTEELLKKAKGNTEEDGVPSTSPMEVLDRLIQQGADAHSKELNKLPLPSKSVDWTHFGGSPPSDEIRTLRDQLLLLHNQLLYERFKRQQHALRNRRLLRKVIKAAALEEHNAAMKDQLKLQEKDIQMWKVSLQKEQARYNQLQEQRDTMVTKLHSQIRQLQHDREEFYNQSQELQTKLEDCRNMIAELRIELKKANNKVCHTELLLSQVSQKLSNSESVQQQMEFLNRQLLVLGEVNELYLEQLQNKHSDTTKEVEMMKAAYRKELEKNRSHVLQQTQRLDTSQKRILELESHLAKKDHLLLEQKKYLEDVKLQARGQLQAAESRYEAQKRITQVFELEILDLYGRLEKDGLLKKLEEEKAEAAEAAEERLDCCNDGCSDSMVGHNEEASGHNGETKTPRPSSARGSSGSRGGGGSSSSSSELSTPEKPPHQRAGPFSSRWETTMGEASASIPTTVGSLPSSKSFLGMKARELFRNKSESQCDEDGMTSSLSESLKTELGKDLGVEAKIPLNLDGPHPSPPTPDSVGQLHIMDYNETHHEHS
notes: TSC1 (hamartin), human; ORF sub-cloned into a modified pCAG vector; Two copies (TSC1a, TSC1b) stand in the TSC complex (2:2:1); The sample for cryo-EM was cross-linked with glutaraldehyde (Grafix); also called TSC1a; TSC1b
B3: Tre2-Bub2-Cdc16-1 domain family member 7 (TBC1D7), human, subunit of the purified TSC complex (natural protein, UniProt Q9P0N9 1-293, looked up)
chain: MTEDSQRNFRSVYYEKVGFRGVEEKKSLEILLKDDRLDTEKLCTFSQRFPLPSMYRALVWKVLLGILPPHHESHAKVMMYRKEQYLDVLHALKVVRFVSDATPQAEVYLRMYQLESGKLPRSPSFPLEPDDEVFLAIAKAMEEMVEDSVDCYWITRRFVNQLNTKYRDSLPQLPKAFEQYLNLEDGRLLTHLRMCSAAPKLPYDLWFKRCFAGCLPESSLQRVWDKVVSGSCKILVFVAVEILLTFKIKVMALNSAEKITKFLENIPQDSSDAIVSKAIDLWHKHCGTPVHSS
notes: TBC1D7, human; ORF sub-cloned into a modified pCAG vector; residues 21-287 traced; One copy stands in the TSC complex (2:2:1); The sample for cryo-EM was cross-linked with glutaraldehyde (Grafix)

Common to all, as to test: cryo-EM structure; human TSC complex (TSC1, TSC2, TBC1D7) co-expressed in Expi293F, purified, cross-linked by Grafix (glutaraldehyde); single particle reconstruction, 4.4 Å overall, core 3.6 Å, wings 3.9 and 4.1 Å
Series [1] concerns the molecule itself.
The target of series [2] is B1. As to conditions: both partners purified.
The target in series [3] is B2. The following applies: both partners purified.

A word on the stoichiometry N: it is a count of units in the complex or per binding partner. As for B1, the “stoichiometry N” value in series [1] stood at 2. As for B2, in series [2], the binding result is on record as “binds”. As to B3, the binding result in series [3] was “binds”.

The values are drawn from article PMC7804450, “Structural insights into TSC complex assembly and GAP activity on Rheb” (Nature Communications, 2021).
